These results are taken from patent publication US20260317437 (published 2026).

Sequences and labels used below:
B1: VL Y94V (antibody, V domains shown)
VH: EVQLVESGGGLVQPGGSLRLSCAASGFNIYYNYIHWVRQAPGKGLEWVAEFSPYSGSTYYADSVKGRFTISADTSKNTAYLQMNSLRAEDTAVYYCARSAAIVDWYDYFKGFDYWGQGTLVTVSS
VL: DIQMTQSPSSLSASVGDRVTITCRASQSVSSAVAWYQQKPGKAPKLLIYSASSLYSGVPSRFSGSRSGTDFTLTISSLQPEDFATYYCQQYGSVLYTFGQGTKVEIK
B2: VL Y91T (antibody, V domains shown)
VH: B1 VH
VL: B1 VL with Y91T, V94Y
B3: VL S93F (antibody, V domains shown)
VH: B1 VH
VL: B1 VL with S93F, V94Y
B4: VL Y94F (antibody, V domains shown)
VH: B1 VH
VL: B1 VL with V94F
B5: VL Y94L (antibody, V domains shown)
VH: B1 VH
VL: B1 VL with V94L
B6: VH Y30N (antibody, V domains shown)
VH: B1 VH with Y30N
VL: B1 VL with V94Y
B7: VL Y91L (antibody, V domains shown)
VH: B1 VH
VL: B1 VL with Y91L, V94Y
B8: VH W100aH (antibody, V domains shown)
VH: B1 VH with W105H
VL: B1 VL with V94Y
B9: VL Y94D (antibody, V domains shown)
VH: B1 VH
VL: B1 VL with V94D
B10: VH Y30E (antibody, V domains shown)
VH: B1 VH with Y30E
VL: B1 VL with V94Y
B11: VH Y31H (antibody, V domains shown)
VH: B1 VH with Y31H
VL: B1 VL with V94Y
B12: VL S93H (antibody, V domains shown)
VH: B1 VH
VL: B1 VL with S93H, V94Y
B13: VH Y30T (antibody, V domains shown)
VH: B1 VH with Y30T
VL: B1 VL with V94Y
B14: VH Y30I (antibody, V domains shown)
VH: B1 VH with Y30I
VL: B1 VL with V94Y
B15: VL S93V (antibody, V domains shown)
VH: B1 VH
VL: B1 VL with S93V, V94Y
B16: VL S93T (antibody, V domains shown)
VH: B1 VH
VL: B1 VL with S93T, V94Y
B17: VH Y30V (antibody, V domains shown)
VH: B1 VH with Y30V
VL: B1 VL with V94Y
B18: VL Y94H (antibody, V domains shown)
VH: B1 VH
VL: B1 VL with V94H
B19: VH Y31L (antibody, V domains shown)
VH: B1 VH with Y31L
VL: B1 VL with V94Y
B20: VH Y30F (antibody, V domains shown)
VH: B1 VH with Y30F
VL: B1 VL with V94Y
B21: VL Y91D (antibody, V domains shown)
VH: B1 VH
VL: B1 VL with Y91D, V94Y
B22: VH Y31F (antibody, V domains shown)
VH: B1 VH with Y31F
VL: B1 VL with V94Y
B23: VL Y94S (antibody, V domains shown)
VH: B1 VH
VL: B1 VL with V94S
B24: VL Y91W (antibody, V domains shown)
VH: B1 VH
VL: B1 VL with Y91W, V94Y
B25: VL S93Q (antibody, V domains shown)
VH: B1 VH
VL: B1 VL with S93Q, V94Y
B26: VH Y30K (antibody, V domains shown)
VH: B1 VH with Y30K
VL: B1 VL with V94Y
B27: VL Y94A (antibody, V domains shown)
VH: B1 VH
VL: B1 VL with V94A
B28: VH Y30A (antibody, V domains shown)
VH: B1 VH with Y30A
VL: B1 VL with V94Y
B29: VL S93R (antibody, V domains shown)
VH: B1 VH
VL: B1 VL with S93R, V94Y
B30: VL Y94Q (antibody, V domains shown)
VH: B1 VH
VL: B1 VL with V94Q
B31: VL Y94N (antibody, V domains shown)
VH: B1 VH
VL: B1 VL with V94N
B32: VH Y30S (antibody, V domains shown)
VH: B1 VH with Y30S
VL: B1 VL with V94Y
B33: VL Y94T (antibody, V domains shown)
VH: B1 VH
VL: B1 VL with V94T
B34: VL Y91H (antibody, V domains shown)
VH: B1 VH
VL: B1 VL with Y91H, V94Y
B35: VL Y91S (antibody, V domains shown)
VH: B1 VH
VL: B1 VL with Y91S, V94Y
B36: VL S93I (antibody, V domains shown)
VH: B1 VH
VL: B1 VL with S93I, V94Y
B37: VH Y31T (antibody, V domains shown)
VH: B1 VH with Y31T
VL: B1 VL with V94Y
B38: VH Y30L (antibody, V domains shown)
VH: B1 VH with Y30L
VL: B1 VL with V94Y
B39: VL Y91E (antibody, V domains shown)
VH: B1 VH
VL: B1 VL with Y91E, V94Y
B40: VL Y94E (antibody, V domains shown)
VH: B1 VH
VL: B1 VL with V94E
B41: VL Y94R (antibody, V domains shown)
VH: B1 VH
VL: B1 VL with V94R
B42: VH Y30D (antibody, V domains shown)
VH: B1 VH with Y30D
VL: B1 VL with V94Y
B43: VH S54R (antibody, V domains shown)
VH: B1 VH with S55R
VL: B1 VL with V94Y
B44: VH Y31W (antibody, V domains shown)
VH: B1 VH with Y31W
VL: B1 VL with V94Y
B45: VH Y31D (antibody, V domains shown)
VH: B1 VH with Y31D
VL: B1 VL with V94Y

Changes are numbered by the printed parent chain. In names and notes the source's numbering stands.

The target of one assay is T1, GCGR extracellular domain (human, UniProt P47871). The experiment in a line: SPR.
T1 sequence (P47871 26-477): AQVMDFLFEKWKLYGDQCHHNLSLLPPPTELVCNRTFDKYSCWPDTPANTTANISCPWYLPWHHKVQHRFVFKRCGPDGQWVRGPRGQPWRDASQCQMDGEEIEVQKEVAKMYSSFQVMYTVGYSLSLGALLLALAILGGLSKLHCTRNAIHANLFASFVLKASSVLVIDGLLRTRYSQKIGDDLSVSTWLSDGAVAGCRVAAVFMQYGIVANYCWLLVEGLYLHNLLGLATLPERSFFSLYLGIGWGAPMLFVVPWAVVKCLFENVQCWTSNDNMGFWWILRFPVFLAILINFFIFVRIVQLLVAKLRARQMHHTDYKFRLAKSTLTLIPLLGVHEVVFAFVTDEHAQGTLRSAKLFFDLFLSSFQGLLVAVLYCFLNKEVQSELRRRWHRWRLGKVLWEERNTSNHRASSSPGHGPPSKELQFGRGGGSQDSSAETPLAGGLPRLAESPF
In general, Kd refers to the free concentration of one partner at which half of the binding sites on the other are occupied at equilibrium, for simple one-to-one binding. In turn, B1 yielded a Kd of 2.46 nM. On the same count and under the same terms, under B2 stands 2.42 nM; under B3, 5.59 nM. The same measure, in the same setting: next, B4: 2.23 nM; B5: 2.05 nM. Molecule B6 had a dissociation constant Kd of 103 nM. This Kd is about 50-fold higher than that of the molecule before. Still for that read-out and setting: under B7 stands 4.2 nM. Molecule B8 gave a Kd of 41.7 nM. This Kd is about 9.9-fold higher than that of the molecule before. Same read-out and setting: next, B9: 1.92 nM; B10: 45.1 nM. Same read-out and setting: next, B11: 17.5 nM; B12: 2.38 nM; B13: 24.8 nM. Molecule B14 came in with a Kd of 5.54 nM.

Regarding B15, the Kd amounted to 1.74 nM. This Kd is about 3.2-fold lower than that of the molecule before. Molecule B16 registered a Kd of 1.27 nM. Same read-out and setting: next, B17: 6.68 nM; B18: 3.02 nM; B19: 2640 nM. B20 had a Kd of 1.23 nM. Still for that read-out and setting: next, B21: 7.08 nM; B22: 6.94 nM. As to B23, the Kd amounted to 2.08 nM. B24: binding was characterised by a dissociation constant (Kd) of 3.02 nM. The same measure, in the same setting: next, B25: 2.18 nM; B26: 363 nM; B27: 2.64 nM.

In the case of B28, the Kd was 21.3 nM. The same measure, in the same setting: next, B29: 0.766 nM; B30: 2.08 nM; B31: 1.84 nM. Same read-out and setting: under B32 stands 261 nM. On the same count and under the same terms, under B33 stands 2.71 nM. B34 yielded a Kd of 2.82 nM.

In turn, B35 registered a Kd of 2.31 nM.

Turning to B36, the Kd was 2.28 nM. Same read-out and setting: under B37 stands 194 nM; under B38, 4.63 nM.

The molecule B39 showed a Kd of 3.42 nM. On the same count and under the same terms, next, B40: 1.85 nM; B41: 1.41 nM; B42: 20.2 nM. Still for that read-out and setting: next, B43: 16 nM.

The target in the next assay is T1, GCGR extracellular domain. The experiment in a line: SPR. The source holds these as a separate data set. On the technique in general: In SPR one partner is held on a chip, and binding of the other changes the refractive index at the surface.
On to B44, for which the binding result is “no binding”. In the case of B45, the binding result is on record as “no binding”.
